Assay results reported in patent US20210171638A1 (HISUN BIORAY PHARMACEUTICAL, published 2021).
Positions count from the first letter of the chain named.

Legend:
Human PD-L1 (R&D) = target: T1, Human PD-L1 (R&D) (human, UniProt Q9NZQ7 19-239, limits assumed); assay: ELISA, human PD-L1 coated at 5 µg/ml, anti-human Fc-HRP, OD600
T1 construct: Bought recombinant protein coated on ELISA plates; construct not described; also called human PD-L1 protein
Experimental: (§1) In this Example, ELISA assay was used to determine binding of the candidate antibody to human, monkey, and mouse PD-L1.
(§2) After incubation overnight at 4° C., the coating solution was discarded the next day and washed with PBST. 200 μl of BSA blocking solution was added into each well and incubated for 1 h at room temperature. […] Then 100 μl of antibody was added into each well and incubated for 2 h at room temperature. Washing was performed three times with PBST, and anti-human Fc-HRP antibody (Sino Biological) was added and incubated for 1 h at room temperature. Finally, each well was washed four times with PBST, TMB color developing solution (Beijing Tiangen BioTech) was added, and the color was developed at room temperature. After the color development was stopped, the OD value was determined with a microplate reader at 600 nm.

Mouse PD-L1 (R&D) = target: T2, Mouse PD-L1 (R&D) (mouse, UniProt Q9EP73 19-238, limits assumed); assay: ELISA, mouse PD-L1 coated at 5 µg/ml, anti-human Fc-HRP, OD600
T2 construct: Bought recombinant protein coated on ELISA plates; construct not described; also called mouse PD-L1 protein
Experimental: as §1, §2

Monkey PD-L1 (R&D) = target: T3, Monkey PD-L1 (R&D) (monkey); assay: ELISA, monkey PD-L1 coated at 5 µg/ml, anti-human Fc-HRP, OD600
T3 construct: Bought recombinant protein coated on ELISA plates; construct and monkey species not described; also called monkey PD-L1 protein
Experimental: as §1, §2

[1] = target: T4, Recombinant His-tagged PD-L1 (Homo sapiens (Human), UniProt Q9NZQ7 19-238); assay: BIAcore SPR, antibody captured by anti-human IgG on CM5 chip, His-tagged PD-L1 as analyte, 1:1 fit
T4 construct: also called target antigen
Experimental: In this Example, BIAcore is used to determine antibody affinity. In this experiment, the human antibody capture kit (GE, BR100839) was used to couple the anti-human IgG antibody to the S series CM5 sensor chip (GE, BR100530) through amino before the ligand and analyte binding. Recombinant anti-PD-L1 antibodies, B10, B11, and H12 were diluted with HBS-EP+Buffer as ligands. The recombinant His-tagged PD-L1 was diluted with HBS-EP+Buffer to 8 μg/ml, 4 μg/ml, 1.6 μg/ml, 0.64 μg/ml, 0.256 μg/ml and 0.102 μg/ml as analytes. In Biacore Wizard mode, affinity analysis experiments were performed in a multi-cycle manner. The test of each sample included 3 Start up, 1 zero concentration control, 6 gradient concentration samples and 1 repeated concentration sample. After each cycle, 10 mM Glycine HCl PH2.1 regeneration solution is used to regenerate the chip. Each concentration cycle of the analyte was set as follows: capture time 180s, ligand solution flow rate 10 μl/min, ligand and analyte binding time 180 s, analyte solution flow rate 30 μl/min; dissociation time 2400 s. Raw data was introduced into the analysis software, the zero concentration control was subtracted, and the reference channel was subtracted to eliminate the volume effect. The 1:1 binding mode in the Kinetics analysis method was used to fit the graph and the affinity data of the antigen antibody was calculated by regression analysis using the analysis software based on the binding curve.

hPD-L1-Fc protein (R&D) [2] = target: T5, hPD-L1-Fc protein (R&D) (human, UniProt Q9NZQ7 19-239); assay: blocking ELISA: hPD-L1-Fc coated at 1 µg/mL, B11 dilutions mixed 1:1 with CD80-Biotin (0.25 µg/mL), avidin-HRP, OD450
T5 construct: construct not described; not shown: Fc part

hPD-L1-Fc protein (R&D) [3] = target: T5, hPD-L1-Fc protein (R&D); assay: blocking ELISA: hPD-L1-Fc coated at 1 µg/mL, B11 dilutions mixed 1:1 with hPD-1-Fc-Biotin (0.25 µg/mL), avidin-HRP, OD450

T4 sequence (Q9NZQ7 19-238 limits assumed): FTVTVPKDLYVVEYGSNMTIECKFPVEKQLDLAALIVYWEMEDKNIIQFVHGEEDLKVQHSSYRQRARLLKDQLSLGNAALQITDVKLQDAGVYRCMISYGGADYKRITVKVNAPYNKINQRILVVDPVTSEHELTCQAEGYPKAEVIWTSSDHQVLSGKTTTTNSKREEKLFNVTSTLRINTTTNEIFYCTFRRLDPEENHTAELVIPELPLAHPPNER
T2 sequence (Q9EP73 19-238 limits assumed): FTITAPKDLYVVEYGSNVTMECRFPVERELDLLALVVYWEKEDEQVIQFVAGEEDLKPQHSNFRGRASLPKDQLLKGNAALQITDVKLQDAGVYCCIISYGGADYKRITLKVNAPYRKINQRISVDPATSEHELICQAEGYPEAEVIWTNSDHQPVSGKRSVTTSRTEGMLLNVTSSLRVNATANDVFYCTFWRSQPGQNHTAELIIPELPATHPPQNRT
T1 sequence (Q9NZQ7 19-239 limits assumed): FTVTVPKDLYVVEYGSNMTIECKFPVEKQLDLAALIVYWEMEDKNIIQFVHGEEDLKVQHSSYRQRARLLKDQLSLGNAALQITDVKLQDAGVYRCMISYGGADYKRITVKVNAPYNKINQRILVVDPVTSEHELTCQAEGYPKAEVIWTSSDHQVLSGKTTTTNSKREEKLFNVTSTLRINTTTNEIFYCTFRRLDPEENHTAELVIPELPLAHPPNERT
T5 sequence (Q9NZQ7 19-239 limits assumed): as above

B1: Anti-PD-L1 Antibody B11 (antibody, V domains shown)
VH: EVQLVESGGGLVQPGGSLRLSCAASGFTFSETWLHWVRQAPGKGLEWVAWVSPFGGSTYYADSVKGRFTISADTSKNTAYLQMNSLRAEDTAVYYCARRHWPGGFDYWGQGTLVTVSS
VL: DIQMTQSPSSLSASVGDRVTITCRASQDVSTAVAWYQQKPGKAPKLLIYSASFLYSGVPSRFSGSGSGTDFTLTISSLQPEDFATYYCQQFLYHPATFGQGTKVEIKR
notes: also called HZPDL1-B11
**Q.** How did the EC50 (Human PD-L1 (R&D)) turn out when B1 was run?
**A.** 1.03 pM

**Q.** What about the EC50 (Mouse PD-L1 (R&D)) of the same binder?
**A.** 0.407 pM

**Q.** And the EC50 (Monkey PD-L1 (R&D))?
**A.** 0.495 pM

**Q.** What about the Kd [1] of the same binder?
**A.** 629 pM

**Q.** What about the koff [1] of the same binder?
**A.** 0.000857 s⁻¹

**Q.** What about the kon [1] of the same binder?
**A.** 1.36e+06 M⁻¹ s⁻¹

**Q.** What about the “IC50 (read off the curve)” value (hPD-L1-Fc protein (R&D) [2]) of the same binder?
**A.** ~0.2 µg/mL

**Q.** And the “IC50 (read off the curve)” value (hPD-L1-Fc protein (R&D) [3])?
**A.** ~0.3 µg/mL

B2: Anti-PD-L1 Antibody B10 (antibody, V domains shown)
VH: not shown
VL: DIQMTQSPSSLSASVGDRVTITCRASQDVSTAVAWYQQKPGKAPKLLIYSASFLYSGVPSRFSGSGSGTDFTLTISSLQPEDFATYYCQQFIFHPATFGQGTKVEIKR
notes: also called HZPDL1-B10
**Q.** Which EC50 (Human PD-L1 (R&D)) does the source give for B2 here?
**A.** 1.97 pM

**Q.** What about the EC50 (Mouse PD-L1 (R&D)) of the same binder?
**A.** 0.906 pM

**Q.** And the EC50 (Monkey PD-L1 (R&D))?
**A.** 2.65 pM

**Q.** What about the Kd [1] of the same binder?
**A.** 1640 pM

**Q.** And the koff [1]?
**A.** 0.00236 s⁻¹

**Q.** And the kon [1]?
**A.** 1.44e+06 M⁻¹ s⁻¹

B3: Anti-PD-L1 Antibody H12 (antibody, V domains shown)
VH: B1 VH with T32S, S52T, F54Y
VL: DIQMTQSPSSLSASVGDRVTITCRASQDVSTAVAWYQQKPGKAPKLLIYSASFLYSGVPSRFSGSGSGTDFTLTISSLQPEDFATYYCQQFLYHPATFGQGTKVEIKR
notes: also called HZPDL1-H12
**Q.** With B3 as the binder, how does the EC50 (Human PD-L1 (R&D)) read?
**A.** 1.4 pM

**Q.** And the EC50 (Mouse PD-L1 (R&D))?
**A.** 0.483 pM

**Q.** What about the EC50 (Monkey PD-L1 (R&D)) of the same binder?
**A.** 0.551 pM

**Q.** What about the Kd [1] of the same binder?
**A.** 2190 pM

**Q.** And the koff [1]?
**A.** 0.00261 s⁻¹

**Q.** And the kon [1]?
**A.** 1.19e+06 M⁻¹ s⁻¹
